Assay results as given in patent publication KR20130126534A.

Biological target: TNF-α
Assay: ELISA, TNF-α coated 100 ng/well, protein titrated from 100 nM, anti-Human Fc-HRP

Kd: 0.068 nM
Substance: TNFR2 (단독) (from UniProt P20333 23-252) (Fc fusion)
